According to the DeepSol protein solubility set:

Assay: soluble on expression in E. coli; label from the status in PepcDB or PDB records

Row | Sequence | soluble on expression in E. coli
1 | MGSDKIHHHHHHMELCTTICVDLAKQVFQLAGEDATGRVIYEDRIKSRQAFHDFLLRLPTTVAVLMECGPGAQAWARLLQAKGNPVRILPAQRVAEHRSGAKNDRNDCYAILRAGRDTSIASIPIKSTTALAIQALHRIRRGNIKRHTALGNQIRGLLLEHGVSMPQGDAAINKHVPRALEDASLPLPDLLRELLDELLMDWLSLGERITALSRRLEATAQEDKVAQRLITIRGVGPIIATAIVAKQTDPSRFASGRMYSAFFGIVPDQHSSGNKIRLGKMSKRGDGYIRSLMIQGAHSVLSQLRPDSDQPDDRRLLRWLSRLGRKEAAIRLANRNLRIIWALLQSDQVYQRKPNEKPEAAMSL | not soluble
2 | MGSDKIHHHHHHMELKKLDEGLFWPDYKNSIVNFSNSILELFDEKPLHRPFRFPKRVLENVRKVIVMVIDGLSFEIFSDTIHDDDVQVFPCSAVFPTTTAAALPSLYSALTPLEHGFLGYILYLREVGSLVNMIEMSPPGLPRDSVLRFHDFKFTTIFQRLQSKVKSFFLIPRYLLGTGFSRIMSQGSEQIGFSSFGDMIERTLEVLEKHDRTLVFIYWPTLDSIAHKNGVGREYIRELRWIYRILKSELLRRLKQDTLFFLVSDHGQISTPQDNEIWWNFSSEVMRFLDRPPAGEQRMMFLYTKKKRALIEYLKEKYGDFAVFLDTKDVVQLFGTGRKHPEFFSRVGDAVLITRETFSFNYRYTGKEESLSGRHGSLSYQELVVPLVVYRRW | not soluble
3 | MGSDKIHHHHHHMEQCNERPKVSVIIPVYNTCNYVQEALESICQQTLEELEIIVIDDGSTDCSRAIVEEIAIKDTRIQVYKQSNQGLSITRNQGLKFSTGEYIYFMDSDDFLEPDALELCYRKCTKEALDFVFFDAETFTIEPNIPESSFDYQRTLDLPEKICSGIDMLKTQLKTYKFKSSVCLNLFHREFICEERLSFYPGILHEDQLFMIQAYLHASKTGFIRRSFFHRRIRTNSIMTKKFTWKNMEGYLTVTNELLRELPIYPKTYHHTIFFFLRQMLDAAVWQAHTLSLPQRIKLFSLCLKYYRPYVTMRTLMVLLLKTSIHPRQ | not soluble
4 | MGSDKIHHHHHHMEQKLSESEQYLWHFIETHILEIPDYSIVKLSERANVSTATIVRTMKKKGYEGFTSFKHHLKDKENQNINFSALEKVDRGIRTAILKNEEEVTRTINMIEIGNIEDAIQKIKASRRIIIFARGFSELIAQEMMVKFQLAGKYCELHTDPEIIKNISKKLSKKDVALFVSLNGETQELVVAGKNCYDSEIGTILLTASKHSSLMKYIEIPFVGFKSEGSFFPDYEVRSRLPLSILARILLDAYALRTTT | not soluble
5 | MGSDKIHHHHHHMEQTGYGEHIAHTVRNVPYETAIQTEDIAGELAKKFALPYNHAKTITNVKLKRMADKGEIERLQKGIYCHVKQTFFGKVTPTADQVLLKTLMVQNGAKIGYESGASLLNKLGLTTLIPRDIEITTNRYGAKLPEGCHIKLRKPPMPVTDENWKYLQFIDVLMYLPDAHTDAEKPEVLLRQHAKEQQLDYLTLIFTARKYYPQKIVLPLIDLLMEVENETASR | not soluble
6 | MGSDKIHHHHHHMERAAFGKLVQALRREHRDEKGRVWTQEVLAERTQLPKRTIERIENGSLAHLDADILLRLADALELTIGERREFFFAATGIIEQKSATYKRSPEESLQYLIDMIRNMNVPAFVTDQYVNIIAANMITIRFFNIPMELIETAPLLPHGYNLMRVVFGTEYDFRRVVGTMWDEVARHNMQLFRAISLRVRADGYFVELLDNLMQYREFKRFWERAHLETEDTSAENFWYQYTHPVYGLLSYVSSRSQIPTSMGLLSMHTYIPLSPATTDLFAKLSTVANQDVIRLAPWPRSNG | not soluble
7 | MGSDKIHHHHHHMESHVNILKSDVKIDPSRSPFMKERVEVMYEGDDLESILEQVKEIELGEMTFKVIFVKINDLEGENKIEYAERRIIERRIGDCIDAEADVRNPERTFGIVPLGGRWYFGHYVESKPVWYHHIKKPRSYSTSLSTRVARSVANIAVPNPEGVRAIDPCCGIGTVVVEALSMGINIVGRDISPLVAIGARENIAHFGFDGTITKGPIEEITENYDVAIIDMPYDLFTHATPENQLSILSSARRIAKKVVVVTMETMDDMIHEAGFEIIDRCTTKKGTFSRQILVCE | not soluble
8 | MGSDKIHHHHHHMEVLSGECRSASSVASAGGGHAESWARYASMDRKGESSMAAQQPTILATSGGYKAGRRSRLEFDALLHHAVELSGVTGRAPRVTHIGTAAGDQRSFNAELDQAAKIAGFDFSHLNLFTMPSIDDPEAHLLEQDVVWVNGGSVVNLLAVWRAHGLDGILRRVWEAGVVLAGVSAGSICWFQGGTTDSYGPQLRPVTNALGFLPYANGVHYDSEVQRRPLVHRLVADGTLGETHCTDDGAGLVYFGTHLAEAVTEVRGKAAYRVTRHIQGGGAATAAEERLEARFLG | not soluble
9 | MGSDKIHHHHHHMFAGAPLSMLLAMPHRPYRDEADLTLLLRWLSDHAPTTFMHPGDLVWWLYQNTQVDPRQALELLFDGEAGGNELQGFGYCDGSWSVLQGLPDLPAHVWDEMVAAAATRAGGKLTVQPHEWDTPQLAALKRAGFELTDNRMVRLVREVQPCDQEAVALPAGFHFADMSGSEVSPEDRVKVHQDVWHPSKVTLEAYGRLQAAPLYRPDLDVMVVAPSGEIAAYALGWFDPGSRTGLMEPVGTRAAFRRQGLGKGLIREVTHRFAALGAQKVTIGSYEKNVAAVALYTSAGYAARGFWVDWETETAAMKEGQDSA | not soluble
10 | MGSDKIHHHHHHMFISDLHIGDGSAKDDFFFDKELVNFIEDMSQTEDVELFVVGDGFEILESRTVKEIGLVSFEEVVETLDETVIDEIEKKHSEVFETLKKFSRRHRVYYVVGNHDYHILKNKKLQNALKNRFEKFEILPYYYDPHSKLLVLHGNQFDVINRFTVDRKTKKVIPPLGDYIARYMMINFDSQVVNFAPEDVIRDYDNVRPLLDVFHWFDYVTEIYDLSVDLVELWLKSFLSMLKTREARKWMKNNFPRTHWLSKVFVNRFGGVELGKVLVRSIYTLRKLRRVDYLQKWAKSILKGNLRWKEFMTGYSGDLHEVEEVDILVMGHVHHFAYRIVPTTQGKKLYVNCGSWRPVLEKLGIRKRHGFHRKAELPKIIMDFSGKNVEVKASITNVLGKIQGGDL | not soluble
11 | MGSDKIHHHHHHMFQPLLDAFIESASIEKMVSKSPPPPLKIAVANWWGDEEIKEFKKSVLYFILSQRYAITLHQNPNESSDLVFSNPLGAARKILSYQNTKRVFYTGENESPNFNLFDYAIGFDELDFNDRYLRMPLYYAHLHYEAELVNDTTAPYKLKDNSLYALKKPSHHFKENHPNLCAVVNDESDLLKRGFASFVASNANAPMRNAFYDALNSIEPVTGGGSVRNTLGYKVGNKSEFLSQYKFNLCFENSQGYGYVTEKILDAYFSHTIPIYWGSPSVAKDFNPKSFVNVHDFNNFDEAIDYIKYLHTHPNAYLDMLYENPLNTLDGKAYFYQDLSFKKILDFFKTILENDTIYHNNPFIFYRDLHEPLISIDDLRVNYDDLRVNYDDLRVNYDDLRVNYDDLRVNYDDLRVNYDDLRVNYDDLRVNYDDLRVNYDDLRVNYDRLLQNASPLLELSQNTTFKIYRKAYQKSLPLLRTIRRWVKK | not soluble
12 | MGSDKIHHHHHHMFVLKNVKYKDILNIEELHIPARKITVITGKSGTGKTTLLKMLNKLISPDSGEIFFKGTPLTEIDSVELRRKVVMLPQFPVVFPGNVKENLLMGLKFSGKKIPHDEELRKILKFVMLEKDLNDDPEKFSGGEKQRLALARVLLMDPEVLLLDEPTSSLDEKTGIEIIKKVSNFAKSRGKTLVMVTHNPELRKFADVLIELKNGRVL | not soluble
13 | MGSDKIHHHHHHMGACENRWTVAKALRFPGDALQTILVAAPRGDLSTFFSIECTKRVHTGRCVTTANALKVQAFHTTDVTEQVRATPGWQQQYRQMSPGYFSGELRCLGLDGVEVYEERLNTRVEQFFRAPSGSLAFCFDRSENSLYLLNEQSRNIWITPENYQEVAVVFDQAFLARHGLDPQRLEGLFMVPLGSGQNALFGSWLSATLTRLGEEGCPLQGQALAEQLLEDCLFILDNASQRLQGVALGRRDEERAIMHRVSEWAADCPEETLNLLELADVAGVSLRQLQQAFKAFTGMPPAHWLRLRRLNGARRDLLRGGGVTVAEVAMRWSFWHLGRFSESYRQLFKEFPSETLKRCRV | not soluble
